Reference: patent US20260116987A1 (Gilead, published 2026)
Where a chain is given by its changes, count along the chain named.

T1: Human CCR4 expressed on CHO-S cells (human, UniProt P51679 1-360)
T1 construct: whole, on cells; also called CCR4-expressing CHO-S cells
T1 sequence (looked up): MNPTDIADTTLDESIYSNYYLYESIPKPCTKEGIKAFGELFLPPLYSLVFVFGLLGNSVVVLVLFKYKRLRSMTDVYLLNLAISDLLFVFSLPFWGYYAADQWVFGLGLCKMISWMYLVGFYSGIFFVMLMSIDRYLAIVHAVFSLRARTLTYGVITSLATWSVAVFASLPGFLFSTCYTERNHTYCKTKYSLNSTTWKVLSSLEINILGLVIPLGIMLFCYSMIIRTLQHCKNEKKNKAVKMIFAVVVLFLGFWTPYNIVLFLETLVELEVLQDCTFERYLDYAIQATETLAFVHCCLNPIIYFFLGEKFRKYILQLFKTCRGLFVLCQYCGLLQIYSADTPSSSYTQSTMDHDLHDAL

B1: 7B16.002 (CDR H3 alanine scan variant of 7-B16) (antibody, human IgG1, kappa, V domains shown)
VH: EVQLVESGGGLVQPKGSLKLSCAASGFTFNTYAMNWVRQAPGKGLEWVARIRSKSNNYATYYADSVKDRFTISRDDSQSMLYLQMNNLKTEDTAMYYCARGLLRYRFFDVWGAGTTVTVSS
VL: DIVMTQAEPSVPVTPGESISISCRSSKSLLHSNGNTYLYWFLQRPGQSPQLLIYRMSNLASGVPDRFSGSGSGTAFTLRISRVEAEDVGVYYCMQHLEYPFTFGGGTKLEIKR
B2: 7B16.004 (CDR H3 alanine scan variant of 7-B16) (antibody, human IgG1, kappa, V domains shown)
VH: B1 VH with A99V, G101A
VL: B1 VL
B3: 7B16.005 (CDR H3 alanine scan variant of 7-B16) (antibody, human IgG1, kappa, V domains shown)
VH: B1 VH with A99V, L102A
VL: B1 VL
B4: 7B16.006 (CDR H3 alanine scan variant of 7-B16) (antibody, human IgG1, kappa, V domains shown)
VH: B1 VH with A99V, L103A
VL: B1 VL
B5: 7B16.008 (CDR H3 alanine scan variant of 7-B16) (antibody, human IgG1, kappa, V domains shown)
VH: B1 VH with A99V, Y105A
VL: B1 VL
B6: 7B16.009 (CDR H3 alanine scan variant of 7-B16) (antibody, human IgG1, kappa, V domains shown)
VH: B1 VH with A99V, R106A
VL: B1 VL
B7: 7B16.010 (CDR H3 alanine scan variant of 7-B16) (antibody, human IgG1, kappa, V domains shown)
VH: B1 VH with A99V, F107A
VL: B1 VL
B8: 7B16.013 (CDR H3 alanine scan variant of 7-B16) (antibody, human IgG1, kappa, V domains shown)
VH: B1 VH with A99V, V110A
VL: B1 VL
B9: Humanized 1-K17.015 (antibody, human IgG1, kappa, V domains shown)
VH: EVQLVQSGAEVKKPGASVKVSCKASGYTFTSYNMHWVRQAPGQRLEWIGAIYPGQGDTSYNQKFKGRATLTADKSASTAYMELSSLRSEDTAVYYCARKGGTPFAYWGQGTLVTVSS
VL: DVVMTQSPLSLPVTLGQPASISCRSSQSLVHSNAQTYLYWYQQRPGQSPRLLIYKVSNRFSGVPDRFSGSGSGTDFTLKISRVEAEDVGVYFCSQSTHVPYTFGQGTKLEIKR
notes: Humanized with hotspot correction
B10: Humanized 1-K17.044 (antibody, human IgG1, kappa, V domains shown)
VH: B9 VH with R44G, Q55A, A76T
VL: B9 VL with Q35A
notes: as for B9
B11: Humanized 7-B16.001 (antibody, human IgG1, kappa, V domains shown)
VH: EVQLVESGGGLVQPGGSLKLSCAASGFTFNTYAMNWVRQASGKGLEWVGRIRSKSNNYATYYADSVKDRFTISRDDSKNTAYLQMNSLKTEDTAVYYCVRGLLRYRFFDVWGQGTTVTVSS
VL: B1 VL with A7S, E8P, P9L, V11L, S18P, I19A, R44K, A75D, R79K, L109V
notes: Humanized
B12: Humanized 7-B16.033 (antibody, human IgG1, kappa, V domains shown)
VH: B11 VH with G16R, K19R, A23T, N30A, S41P, G49A, N79S, T80I, A81L
VL: B1 VL with A7S, E8P, P9L, V11L, S18P, I19A, R44K, A75D, R79K, L109V
notes: Humanized
B13: 7B16-H2.001 (CDR H2 swapped mutant of 7-B16) (antibody, V domains shown)
VH: B1 VH with S55A, N57S, Y61A, D64A, A99V
VL: B1 VL
notes: also called CDR swapped variant H2
B14: 7B16-H3C1.001 (CDR H3 combo mutant of 7-B16) (antibody, V domains shown)
VH: B1 VH with Y105A
VL: B1 VL
B15: 7B16-H3C2.001 (CDR H3 combo mutant of 7-B16) (antibody, V domains shown)
VH: B1 VH with V110A
VL: B1 VL
B16: 7B16-H3C3.001 (CDR H3 combo mutant of 7-B16) (antibody, V domains shown)
VH: B1 VH with A99V, Y105A, V110A
VL: B1 VL
B17: 7B16-H3C4.001 (CDR H3 combo mutant of 7-B16) (antibody, V domains shown)
VH: B1 VH with Y105A, V110A
VL: B1 VL
B18: 7B16-L2.001 (CDR L2 swapped mutant of 7-B16) (antibody, V domains shown)
VH: B1 VH with A99V
VL: B1 VL with R55L, M56G, L59R
notes: also called CDR swapped variant L2
B19: 1-K16 (mouse hybridoma antibody) (antibody, mouse IgG1, kappa)
heavy: EVQLVETGGGLVQPKGSLKLSCAASGFTFNINAMNWVRQAPGKGLEWVARIRSKSNNYATYYADSVKDRFTISRDDSQSMLYLQMNNLKTEDTAMYYCVRGGYGSSPYDMDYWGQGTSVTVSSAKTTPPSVYPLAPGSAAQTNSMVTLGCLVKGYFPEPVTVTWNSGSLSSGVHTFPAVLESDLYTLSSSVTVPSSPRPSETVTCNVAHPASSTKVDKKIVPRDCGCKPCICTVPEVSSVFIFPPKPKDVLTITLTPKVTCVVVDISKDDPEVQFSWFVDDVEVHTAQTQPREEQFNSTFRSVSELPIMHQDWLNGKEFKCRVNSAAFPAPIEKTISKTKGRPKAPQVYTIPPPKEQMAKDKVSLTCMITDFFPEDITVEWQWNGQPAENYKNTQPIMNTNGSYFVYSKLNVQKSNWEAGNTFTCSVLHEGLHNHHTEKSLSHSPG
light: DIVMTQAAPSVPVTPGESVSISCRSSKSLLHSNGNTYLYWFLQRPGQSPQLLIYRMSNLASGVPDRFSGSGSGTAFTLRISRVEAEDVGVYYCMQHLEYPFTFGAGTKLELKRADAAPTVSIFPPSSEQLTSGGASVVCFLNNFYPKDINVKWKIDGSERQNGVLNSWTDQDSKDSTYSMSSTLTLTKDEYERHNSYTCEATHKTSTSPIVKSFNRNEC
B20: 19-O07 (mouse hybridoma antibody) (antibody, human IgG1)
heavy: EVQLQQSVAELVRPGASVKLSCTASGFNIKNTQMHWVKQRPEQGLEWIGRIDPANGNTKYAPKFQGKATITGDTSSNTAYLQLSSLTSEDTAIYYCARFDYYYGSGDYAMDYWGQGTSVTVSSTTTAPSVYPLVPGCSDTSGSSVTLGCLVKGYFPEPVTVKWNYGALSSGVRTVSSVLQSGFYSLSSLVTVPSSTWPSQTVICNVAHPASKTELIKRIEPRIPKPSTPPGSSCPPGNILGGPSVFIFPPKPKDALMISLTPKVTCVVVDVSEDDPDVHVSWFVDNKEVHTAWTQPREAQYNSTFRVVSALPIQHQDWMRGKEFKCKVNNKALPAPIERTISKPKGRAQTPQVYTIPPPREQMSKKKVSLTCLVTNFFSEAISVEWERNGELEQDYKNTPPILDSDGTYFLYSKLTVDTDSWLQGEIFTCSVVHEALHNHHTQKNLSRSP
light: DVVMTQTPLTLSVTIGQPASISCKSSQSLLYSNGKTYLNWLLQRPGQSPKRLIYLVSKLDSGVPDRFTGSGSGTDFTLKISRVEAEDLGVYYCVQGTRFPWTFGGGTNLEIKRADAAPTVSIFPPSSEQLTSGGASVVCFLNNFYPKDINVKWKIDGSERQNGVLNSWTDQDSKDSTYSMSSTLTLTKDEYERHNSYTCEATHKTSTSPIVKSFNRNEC
notes: also called 19-007

Target: T2, Human CCR8 (C-C chemokine receptor type 8) expressed on CHO-S cells (human, UniProt P51685 1-355)
T2 construct: also called huCCR8; human CCR8-expressing CHO-S cells
Experiment: flow cytometry, human CCR8-overexpressing against parental CHO-S cells
Experimental: The first category of variant (single substitution mutation in the CDR H3) included variants in which each amino acid residue of the heavy chain CDR 3 (i.e., , CDR H3) was iteratively substituted with an alanine residue.
CCR8 binding was determined using flow cytometry according to the same methods used in Example 4, Briefly, antibodies were screened for specific binding to human CCR8 by flow cytometry using human CCR8-overexpressing and parental CHO—S cell line. Antibodies specifically binding to human CCR8 were also tested for binding to CCR4 by flow cytometry.

T2 sequence (P51685 whole entry): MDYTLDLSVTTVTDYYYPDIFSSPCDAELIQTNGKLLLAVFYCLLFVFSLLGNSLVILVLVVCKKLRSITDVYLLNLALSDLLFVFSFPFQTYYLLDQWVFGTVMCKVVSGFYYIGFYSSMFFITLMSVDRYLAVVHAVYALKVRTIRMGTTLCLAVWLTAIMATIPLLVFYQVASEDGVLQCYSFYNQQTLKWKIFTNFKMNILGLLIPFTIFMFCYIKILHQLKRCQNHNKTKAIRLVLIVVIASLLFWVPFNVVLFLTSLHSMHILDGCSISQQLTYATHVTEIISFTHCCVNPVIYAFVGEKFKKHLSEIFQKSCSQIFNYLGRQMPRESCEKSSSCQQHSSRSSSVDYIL

| Binder | Flow (fold over parent) [fold] |
| --- | --- |
| B1 | 8 |
| B2 | 6 |
| B3 | 9 |
| B4 | 8 |
| B5 | 9 |
| B6 | 10 |
| B7 | 4 |
| B8 | 9 |

Target: T2, Human CCR8 (C-C chemokine receptor type …)
Experiment: KinExA, on-cell affinity

| Binder | Kd [pM] | koff [s⁻¹] | kon [M⁻¹ s⁻¹] |
| --- | --- | --- | --- |
| B9 | 14.5 | 0.000142 | 9.78e+06 |
| B10 | 8.05 | 6.67e-05 | 8.29e+06 |
| B11 | 15.9 | 7.93e-05 | 4.99e+06 |
| B12 | 74.6 | 0.000391 | 5.25e+06 |

Target: T3, CCR8-NT.MBP (CCR8 N-terminus peptide aa 1-35 fused with maltose binding protein)
Experiment: ForteBio Octet, antibody at 10 µg/ml captured on AHC biosensors, 300 nM CCR8-NT.MBP as analyte
Excerpt: (amino acids 406-440 of SEQ ID NO: 128), Amino acids 1-364 of SEQ ID NO: 128 represent the maltose binding protein.

| Binder | Octet (nm shift) [nm] |
| --- | --- |
| B1 | 0.469 |
| B2 | 0.221 |
| B3 | 0.296 |
| B4 | 0.22 |
| B5 | 0.436 |
| B6 | 0.303 |
| B7 | 0.155 |
| B8 | 0.383 |

Target: T1, Human CCR4 expressed on CHO-S cells
Experiment: flow cytometry

| Binder | binding result |
| --- | --- |
| B9 | no binding |
| B10 | no binding |
| B11 | no binding |
| B12 | no binding |

Target: T3, CCR8-NT.MBP (CCR8 N-terminus peptide aa …)
Experiment: ForteBio Octet, antibody captured on AHC biosensors, CCR8-NT.MBP as analyte

| Binder | Octet Response (nm) |
| --- | --- |
| B13 | 0.299 |
| B14 | 0.431 |
| B15 | 0.357 |
| B16 | 0.376 |
| B17 | 0.404 |
| B18 | 0.205 |

Target: T2, Human CCR8 (C-C chemokine receptor type …)
Experiment: cell-based or functional assay

| Binder | ADCC (Fold Induction) [fold] |
| --- | --- |
| B1 | 22.9 |
| B2 | 19.5 |
| B3 | 20 |
| B4 | 14.1 |
| B5 | 24.8 |
| B6 | 19.8 |
| B7 | 1.36 |
| B8 | 25.9 |

Target: T1, Human CCR4 expressed on CHO-S cells
Experiment: flow cytometry (PE-A), human CCR4-expressing CHO-S cells against parental CHO-S cells; antibody concentration not given

| Binder | binding result |
| --- | --- |
| B19 | no binding |
| B20 | no binding |
